Data on two molecules can be found in patent US20170333570A1 (FORMATION BIOLOGICS, published 2017).

The test deals with human epidermal growth factor receptor (hEGFR) (human, UniProt P00533 25-1210). Nature of the test: cell-based or functional assay.

B1: 1024-DM1 (antibody, V domains shown)
VH: QVQLQQPGAELVEPGGSVKLSCKASGYTFTSHWMHWVKQRPGQGLEWIGEINPSSGRNNYNEKFKSKATLTVDKSSSTAYMQFSSLTSEDSAVYYCVRYYGYDEAMDYWGQGTSVTVS
VL: DIVMTQAAFSNPVTLGTSASISCRSSKSLLHSNGITYLYWYLQKPGQSPQLLIYQMSNLASGVPDRFSSSGSGTDFTLRISRVEAEDVGVYYCAQNLELPYTFGGGTKLEIKR
modifications: DM1 conjugated through SMCC linker; conjugated residues and chain not stated
As for B1, the “IC50 (nM), cell growth/survival (sulforhodamine B), A549” value came to 24.7 nM; the “IC50 (nM), cell growth/survival (sulforhodamine B), NCI-H226” value is 1.89 nM; the “IC50 (nM), cell growth/survival (sulforhodamine B), NCI-H292” value turned out to be 0.09 nM.

B2: 992-DM1 (antibody, V domains shown)
VH: EVQLQQPGSELVRPGASVKLSCKASGYTFTSYWMHWVKQRPGQGLEWIGNIYPGSRSTNYDEKFKSKATLTVDTSSSTAYMQLSSLTSEDSAVYYCTRNGDYYVSSGDAMDYWGQGTSVTVS
VL: DIQMTQTTSSLSASLGDRVTISCRTSQDIGNYLNWYQQKPDGTVKLLIYYTSRLHSGVPSRFSGSGSGTDFSLTINNVEQEDVATYFCQHYNTVPPTFGGGTKLEIKR
modifications: DM1 conjugated through SMCC linker; conjugated residues and chain not stated
Turning to B2, the “IC50 (nM), cell growth/survival (sulforhodamine B), A549” value stood at 2.2 nM; the “IC50 (nM), cell growth/survival (sulforhodamine B), NCI-H226” value came out at 1.07 nM; the “IC50 (nM), cell growth/survival (sulforhodamine B), NCI-H292” value came to 0.22 nM.
